Reference: patent US12296012 (Pfizer, dated 2025)

T1: human FLT3 (human, UniProt P36888 27-541, limits assumed)
T1 construct: Soluble analyte hFLT3 in SPR; also called hFLT3; huFlt3
T1 sequence: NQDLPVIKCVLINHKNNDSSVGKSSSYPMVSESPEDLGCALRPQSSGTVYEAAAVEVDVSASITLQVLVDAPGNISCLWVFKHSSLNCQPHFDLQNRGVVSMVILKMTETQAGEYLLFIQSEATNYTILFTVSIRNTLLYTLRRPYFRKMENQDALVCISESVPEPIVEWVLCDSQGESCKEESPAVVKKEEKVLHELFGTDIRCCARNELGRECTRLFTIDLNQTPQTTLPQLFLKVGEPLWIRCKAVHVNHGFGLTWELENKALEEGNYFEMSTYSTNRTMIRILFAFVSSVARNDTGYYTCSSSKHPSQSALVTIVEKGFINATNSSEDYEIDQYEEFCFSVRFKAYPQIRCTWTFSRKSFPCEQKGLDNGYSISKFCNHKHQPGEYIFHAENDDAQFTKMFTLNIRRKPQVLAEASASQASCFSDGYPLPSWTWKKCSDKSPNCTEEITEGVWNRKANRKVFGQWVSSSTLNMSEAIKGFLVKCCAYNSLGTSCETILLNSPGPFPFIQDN

B1: P3E10 (scFv format) (scFv)
scFv: QVQLVQSGAEVKKPGSSVKVSCKASGGTFSSYAIQWVRQAPGQGLEWMGGIVGSWGLANYAQKFQGRVTITTDKSTSTAYMELSSLRSEDTAVYYCATSAFGELASWGQGTLVTVSSGGGGSGGGGSGGGGSEIVLTQSPGTLSLSPGERATLSCRASQSVPSSQLAWYQQKPGQAPRLLIYDASSRATGIPDRFSGSGSGTDFTLTISRLEPEDFAVYYCQQYGSSPLTFGQGTKVEIK
B2: P4H11 (scFv format) (scFv)
scFv: EVQLLESGGGLVQPGGSLRLSCAASGFTFSSYAMNWVRQAPGKGLEWVSSISGGGRSTYYADSVKGRFTISRDNSKNTLYLQMNSLRAEDTAVYYCARDLSPSDVGWGYGFDIWGQGTLVTVSSGGGGSGGGGSGGGGSEIVLTQSPGTLSLSPGERATLSCRASQSVSNTYLAWYQQKPGQAPRLLIYDTSSRATGIPDRFSGSGSGTDFTLTISRLEPEDFAVYYCQQYGSSLTFGQGTKVEIK
B3: P1B4 (scFv format) (scFv, not shown: a dimerising Fc or GST; small tags and cut ends)
scFv: QVQLVQSGAEVKKPGSSVKVSCKASGGVFSRYALSWVRQAPGQGLEWMGGIIPMLGFANYAQKFQGRVTITADESTSTAYMELSSLRSEDTAVYYCATLDFGALDYWGQGTLVTVSSGGGGSGGGGSGGGGSEIVLTQSPGTLSLSPGERATLSCRASQSVPNEQLAWYQQKPGQAPRLLIYDASSRATGIPDRFSGSGSGTDFTLTISRLEPEDFAVYYCQQYGSPPLTFGQGTKVEIK
B4: P1A5 (scFv format) (scFv)
scFv: QVQLVQSGAEVKKPGSSVKVSCKASGGVFSRYALSWVRQAPGQGLEWMGGIIPMLGFANYAQKFQGRVTITADESTSTAYMELSSLRSEDTAVYYCATLDFGALDYWGQGTLVTVSSGGGGSGGGGSGGGGSEIVLTQSPGTLSLSPGERATLSCRASQAVDSSDLAWYQQKPGQAPRLLIYDAYTRPSGIPDRFSGSGSGTDFTLTISRLEPEDFAVYYCQQYGSSPLTFGGGTKLEIK
B5: P7F9 (scFv format) (scFv)
scFv: EVQLLESGGGLVQPGGSLRLSCAASGFTFSSYAMSWVRQAPGKGLEWVSAIGGSGGSTYYADSVKGRFTISRDNSKNTLYLQMNSLRAEDTAMYYCARDYYAFSDPAYGGMDVWGQGTLVTVSSGGGGSGGGGSGGGGSNFMLTQPHSVSESPGKTVTISCTRSSGSIASNYVQWYQQKPGQAPVLVVYDDSDRPSGIPERFSGSNSGNTATLTISRVEAGDEADYYCQVWDSSSDHWVFGGGTKLTVL
B6: P5F7 (scFv format) (scFv)
scFv: EVQLLESGGGLVQPGGSLRLSCAASGFTFSSYAMNWVRQAPGKGLEWVSSISGGGRSTYYADSVKGRFTISRDNSKNTLYLQMNSLRAEDTAVYYCARDLSPSDVGWGYGFDIWGQGTLVTVSSGGGGSGGGGSGGGGSEIVLTQSPATLSLSPGERATLSCRASQSVSSNLAWYQQKPGQAPRLLIYDTFTRATGIPARFSGSGSGTDFTLTISRLEPEDFAVYYCQQYGSSPPTFGQGTRLEIK
B7: P4C7 (scFv format) (scFv, not shown: a dimerising Fc or GST; small tags and cut ends)
scFv: QVQLVQSGAEVKKPGSSVKVSCKASGGTFSSYTISWVRQAPGQGLEWMGGIIPAFGIANYAQKFQGRVTITADKSTSTAYMELSSLRSEDTAVYYCAKGGSYSLDYFDIWGQGTLVTVSSGGGGSGGGGSGGGGSEIVLTQSPGTLSLSPGERATLSCRASQYVSASLLAWYQQKPGQAPRLLIYGASTRATGIPDRFSGSGSGTDFTLTISRLEPEDFAVYYCQQYARSSTFGQGTKVEIK
B8: P1B11 (scFv format) (scFv, not shown: a dimerising Fc or GST; small tags and cut ends)
scFv: QVQLVQSGAEVKKPGSSVKVSCKASGGTFRSFDISWVRQAPGQGLEWMGRIIPILGYANYAQKFQGRVTITADESTSTAYMELSSLRSEDTAVYYCASDLGAPWAGYPFDPWGQGTLVTVSSGGGGSGGGGSGGGGSEIVLTQSPGTLSLSPGERATLSCRASQSVSSSELAWYQQKPGQAPRLLIYDASSRATGIPDRFSGSGSGTDFTLTISRLEPEDFAVYYCQQYDSSPLTFGQGTKVEIK
B9: P9B5 (scFv format) (scFv, not shown: a dimerising Fc or GST; small tags and cut ends)
scFv: EVQLLESGGGLVQPGGSLRLSCAASGFIFASYAMSWVRQAPGKGLEWVSEISSSGGSTTYADSVKGRFTISRDNSKNTLYLQMNSLRAEDTAVYYCARDRVMAGLGYDPFDYWGQGTLVTVSSGGGGSGGGGSGGGGSQSVLTQPPSASGTPGQRVTISCSGSSSNIGSNYVYWYQQLPGTAPKLLIYRNNQRPSGVPDRFSGSKSGTSASLAISGLRSEDEADYYCAAWDDSLSGVVFGGGTKLTVL
B10: P7H3 (scFv format) (scFv, not shown: a dimerising Fc or GST; small tags and cut ends)
scFv: EVQLLESGGGLVQPGGSLRLSCAASGFTFSSYAMHWVRQAPGKGLEWVSAISGSGGSTYYADSVKGRFTISRDNSKNTLYLQMNSLRAEDTAVYYCARGTRWWWGDAFDHWGQGTLVTVSSGGGGSGGGGSGGGGSQSVLTQPPSVSVAPGKTARITCGGNNIGSKSVHWYQQKPGQAPVLVIYYDSDRPSGIPERFSGSNSGNTATLTISRVEAGDEADYYCQVWDSSTAWVFGGGTKLTVL
B11: P14G2 (scFv format) (scFv)
scFv: EVQLLESGGGLVQPGGSLRLSCAASGFTFSNYVMNWVRQAPGKGLEWVSAISGSGATTYYADSVKGRFTISRDNSKNTLYLQMNSLRAEDTAVYYCVSGLWAGGIWGQGTLVTVSSGGGGSGGGGSGGGGSDIQMTQSPSSLSASVGDRVTITCRASQSISSYLNWYQQKPGKAPKLLIYDASDLQRGVPSRFSGSGSGTDFTLTISSLQPEDFATYYCQQSYNTPWTFGQGTKVEIK
B12: P9F1 (scFv format) (scFv, not shown: a dimerising Fc or GST; small tags and cut ends)
scFv: EVQLLESGGGLVQPGGSLRLSCAASGFIFSSFAMSWVRQAPGKGLEWVSDISGSGASTYYADSVKGRFTISRDNSKNTLYLQMNSLRAEDTAVYYCASASGGSGSYWPYMDPWGQGTLVTVSSGGGGSGGGGSGGGGSQSVLTQPPSASGTPGQRVTISCSGSGSNIGSNYVYWYQQLPGTAPKLLIYRNNQRPSGVPDRFSGSKSGTSASLAISGLRSEDEADYYCAAWDGSLSRPVFGTGTKLTVL
B13: P5A3 (scFv format) (scFv, not shown: a dimerising Fc or GST; small tags and cut ends)
scFv: QVQLVQSGAEVKKPGSSVKVSCKASGGTFSSYYIGWVRQAPGQGLEWMGGIIPWFGTANYAQKFQGRVTITADKSTNTAYMELSSLRSEDTAVYYCAADHHDSPSGYTSGGFDVWGQGTLVTVSSGGGGSGGGGSGGGGSQSALTQPASVSGSPGQSITISCTGTSSDVGGYNYVSWYQQHPGKAPKLMIYEVSKRPSGVPDRFSGSKSGNTASLTVSGLQAEDEADYYCSSYAGSNTVVFGGGTKLTVL

Biological target: T1, human FLT3
Assay: SPR Biacore T200, 37C; scFv format

Binder | Kd | koff | kon | t1/2
B1 | 65.1 nM | 0.0112 s⁻¹ | 172000 M⁻¹ s⁻¹ | 1 min
B2 | 58.3 nM | 0.00933 s⁻¹ | 160000 M⁻¹ s⁻¹ | 1 min
B3 | 27.3 nM | 0.00327 s⁻¹ | 120000 M⁻¹ s⁻¹ | 3.5 min
B4 | 1.1 nM | 0.000292 s⁻¹ | 259000 M⁻¹ s⁻¹ | 40 min
B5 | 27.7 nM | 0.00241 s⁻¹ | 87000 M⁻¹ s⁻¹ | 4.8 min
B6 | 1 nM | 0.000197 s⁻¹ | 189000 M⁻¹ s⁻¹ | 59 min
B7 | 13.6 nM | 0.00164 s⁻¹ | 121000 M⁻¹ s⁻¹ | 7 min
B8 | 30.3 nM | 0.00257 s⁻¹ | 84700 M⁻¹ s⁻¹ | 4.5 min
B9 | 18.1 nM | 0.000687 s⁻¹ | 38000 M⁻¹ s⁻¹ | 16.8 min
B10 | 9.1 nM | 0.00187 s⁻¹ | 205000 M⁻¹ s⁻¹ | 6.2 min
B11 | 3.3 nM | 0.000305 s⁻¹ | 93500 M⁻¹ s⁻¹ | 37.9 min
B12 | 126 nM | 0.0286 s⁻¹ | 226000 M⁻¹ s⁻¹ | 0.4 min
B13 | 216 nM | 0.0175 s⁻¹ | 81000 M⁻¹ s⁻¹ | 0.7 min
